Data from US20060280804A1.

Biological target: angiotensin converting enzyme (ACE, EC 3.4.15.1, Sigma)
Assay: cell-based or functional assay

ACEI activity, IC50: > 750 µg/mL
Substance: ovalbumin grade VI (99% purity, Sigma), unhydrolysed (from UniProt P01012 2-386)
